Experiments:
Test in all cases: IEDB peptide-MHC binding, purified MHC/competitive/radioactivity; ≥ and ≤ were set here for values at or beyond the usual limits of such assays
Conditions in all cases: source organism: Bordetella pertussis
HLA-B*53:01 = target: HLA-B*53:01
HLA-B*44:03 = target: HLA-B*44:03
HLA-B*35:01 = target: HLA-B*35:01
HLA-A*02:01 = target: HLA-A*02:01
HLA-B*07:02 = target: HLA-B*07:02
HLA-B*57:01 = target: HLA-B*57:01

For VAAAADLAL, the IC50 (HLA-B*53:01) was 21.7 µM.

In the case of MEYFKTPLP, the IC50 (HLA-B*44:03) is reported as 28.1 µM.

IPFQRALRL showed an IC50 (HLA-B*53:01) of 2.3 µM.

YDTGDLIAY gave an IC50 (HLA-B*35:01) of 69.9 µM.

With AGKSLKKKN the IC50 (HLA-A*02:01) was at least 78.1 µM.

For ECSGKQDCP, the IC50 (HLA-B*07:02) was 69.6 µM.

In the case of VTMRYLASY, the IC50 (HLA-B*57:01) is reported as 0.0142 µM and the IC50 (HLA-B*35:01) is reported as 35.4 µM.

FETYALTGI was tested, and the IC50 (HLA-B*44:03) was 35.8 µM.

IVIPPKALF was tested, and the IC50 (HLA-B*57:01) was 45.6 µM.

APPGAGFIY was tested, and the IC50 (HLA-B*35:01) was 16.5 µM.

In the case of VPFCFGKDL, the IC50 (HLA-B*07:02) is reported as 12.1 µM.

In the case of EHRMQEAVE, the IC50 (HLA-A*02:01) is reported as at least 78.1 µM.

Work on ESAEGRKIF yielded an IC50 (HLA-B*57:01) of at least 70.4 µM and an IC50 (HLA-B*44:03) of 36.7 µM.

AAAEVAGAL showed an IC50 (HLA-B*07:02) of 6.11 µM, an IC50 (HLA-B*35:01) of 69.9 µM and an IC50 (HLA-B*44:03) of 49.4 µM.
